# Data as given in the supplement of paper PMC10567573.
# B1: FCHO1 (parent)
# chain: FSDPSQSDPETKDFWLNMAALTEA
# B2: EPB41L3 (parent)
# chain: SDYISEFRFAPNHTKELEDKVIEL
# Variants of: B1
# Assay: protein stability index of a GFP-peptide fusion (GPS, HEK-293T) (PSI 1-6); higher = more stable
# Conditions: c terminus: a fixed tail appended
# 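Note: lentivirally expressed fusions sorted by FACS into six bins by GFP to DsRed ratio, PSI derived from sequencing read proportions per bin multiplied by bin number.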
row,Variant,protein stability index
1,A19P,2.7
2,A19M,2.54
3,A19V,2.25
4,A19F,2.18
5,A19W,2.09
6,A19N,2.41
7,A19H,1.96
8,A19L,2.44
9,A19S,2.29
10,A19Q,3.02
11,A19K,2.78
12,A19T,1.79
13,A19I,2.47
14,A19G,2.01
15,A19Y,2.7
16,A19R,3.21
17,L21T,2.75
18,L21K,2.95
19,L21V,2.58
20,L21Q,3.3
21,L21D,3.27
22,L21G,2.52
23,L21C,2.4

row,Variant,protein stability index
1,L21F,2.1
2,L21M,2.77
3,L21P,2.32
4,L21N,2.88
5,L21E,3.9
6,L21W,1.73
7,L21H,2.55
8,L21R,2.95
9,L21I,3
10,L21Y,2.38
11,L21A,2.63
12,L21S,2.62
13,A20G,2.65
14,A20L,2.31
15,A20I,2.38
16,A20F,2.24
17,A20E,3.61
18,A20N,2.86
19,A20V,2.19
20,A20Y,2.44
21,A20D,3.25
22,A20M,2.85
23,A20S,2.94

row,Variant,protein stability index
1,A20R,2.81
2,A20Q,2.63
3,A20H,2.82
4,A20T,2.71
5,A20P,2.96
6,A20K,2.63
7,A20W,2.16
8,A20C,2.34
9,A24V,1.82
10,A24H,2.89
11,A24W,2.8
12,A24C,2.36
13,A24K,3.38
14,A24Y,2.29
15,A24M,2.62
16,A24D,2.8
17,A24I,1.92
18,A24Q,3.27
19,A24L,2.67
20,A24E,3.3
21,A24P,2.06
22,A24G,2.5
23,A24S,3.4

row,Variant,protein stability index
1,A24R,3.38
2,A24F,2.56
3,A24T,2.52
4,A24N,3.23
5,T22E,3.66
6,T22M,3.02
7,T22Q,2.9
8,T22V,3.44
9,T22W,3.27
10,T22S,2.34
11,T22F,3.23
12,T22L,2.82
13,T22H,3
14,T22C,3.09
15,T22R,2.46
16,T22A,2.87
17,T22N,2.93
18,T22D,3.04
19,T22Y,2.82
20,T22I,2.86
21,T22K,2.61
22,T22P,2.34
23,T22G,2.53

row,Variant,protein stability index
1,E23N,2.58
2,E23M,2.08
3,E23H,2.17
4,E23F,1.59
5,E23R,3.31
6,E23L,2.3
7,E23V,2.24
8,E23Y,2.1
9,E23K,2.3
10,E23A,2.15
11,E23C,1.63
12,E23T,2.79
13,E23Q,2.86
14,E23G,2.61
15,E23P,2.33
16,E23I,1.9
17,E23D,2.75
18,E23W,2.04
19,E23S,2.23

# Variants of: B2
# Assay: as above
# Conditions: c terminus: a fixed tail appended
row,Variant,protein stability index
1,D2R,2.02
2,D2W,1.89
3,D2L,2.18
4,D2M,2.25
5,D2K,2.45
6,D2H,1.85
7,D2N,1.88
8,D2E,2.48
9,D2I,1.9
10,D2Y,1.75
11,D2T,1.95
12,D2F,2.02
13,D2P,2.29
14,D2C,2.46
15,D2G,1.45
16,D2A,2.21
17,D2V,2.02
18,D2S,2.11
19,D2Q,1.62

row,Variant,protein stability index
1,N12G,1.83
2,N12F,1.9
3,N12D,3.9
4,N12C,1.47
5,N12K,2.18
6,N12A,2.2
7,N12R,1.43
8,N12Q,2.35
9,N12M,1.89
10,N12I,1.82
11,N12H,1.95
12,N12L,2.2
13,N12E,3.54
14,N12P,2.19
15,E6I,2.12
16,E6K,1.85
17,E6N,1.83
18,E6H,1.43
19,E6Y,1.84

row,Variant,protein stability index
1,E6P,2.43
2,E6V,2.06
3,E6C,1.92
4,E6M,1.92
5,E6Q,2.02
6,E6S,2
7,E6T,1.82
8,E6W,2.23
9,E6A,1.67
10,E6L,1.84
11,E6D,1.93
12,E6F,1.52
13,E6G,2.28
14,E6R,2.13
15,Y3K,2.69
16,Y3P,2.4
17,Y3H,2.91
18,Y3L,2.08
